{"source": "patent US10100120B2", "about": "“Antibody which specifically binds to human CRTH2” (KYOWA HAKKO KIRIN CO., LTD, priority 2015, dated 2018)", "molecules": {"B1": {"name": "LV0HV1: humanized Lym2 antibody, VL LV0 (SEQ ID NO: 33), VH HV1 (SEQ ID NO: 51) (antibody, V domains shown)", "VH": "EVQLVESGGGVVQPGRSLRLSCAASGFTFSNYYMAWVRQAPGKGLEWVATISYDGSSTYYRDSVKGRFTISRDNAKNSLYLQMNSLRAEDTATYYCARHRGYYYSGAGYFDYWGQGTMVTVSS", "VL": "DIVMTQTPLSLPVTPGESASISCRSSQSLEYSDGYTYLEWYLQKPGQSPQVLIYGVSNRFSGVPDRFSGSGSGTDFTLKISRVEAEDVGVYYCFQATHDPLTFGQGTKLEIK"}}, "key": {"[1]": {"biological_target": "T1, mutated human CRTH2 with amino acid substitution (Homo sapiens, UniProt Q9Y5Y4, R195A)", "T1 construct": "inserting genes encoding various mutants with amino acid substitution obtained by deleting termination codons; expressed in transfected cells; host or cells: CHO-S cells (Lifetechnologies), transient (phmAG1-MNLinker vector)", "T1 sequence (Q9Y5Y4 1-395 R195A)": "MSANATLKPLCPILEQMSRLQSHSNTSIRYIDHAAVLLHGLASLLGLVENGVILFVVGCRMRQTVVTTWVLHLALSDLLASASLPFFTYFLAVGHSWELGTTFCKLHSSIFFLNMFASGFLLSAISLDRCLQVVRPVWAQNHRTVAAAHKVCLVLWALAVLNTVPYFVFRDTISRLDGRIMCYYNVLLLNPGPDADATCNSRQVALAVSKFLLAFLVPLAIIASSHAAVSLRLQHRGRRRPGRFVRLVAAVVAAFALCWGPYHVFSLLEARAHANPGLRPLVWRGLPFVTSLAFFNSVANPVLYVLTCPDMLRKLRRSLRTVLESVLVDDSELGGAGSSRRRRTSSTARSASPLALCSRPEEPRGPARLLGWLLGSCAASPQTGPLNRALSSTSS", "experiment": "Epitope analysis using CHO-S cells which express mutated human CRTH2 with amino acid substitution", "assay_type": "binding", "conditions": "mutant R195A; antibody 10 μg/mL; relative to wild-type = 100%", "procedure,_shortened": "(§1)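 CHO-S cells transiently expressing alanine-substituted human CRTH2 extracellular mutants, C-terminally Azami-Green tagged, 24 h post-transfection. Antibodies at 10 μg/mL, 4 °C 1 h, then Alexa647 anti-IgG secondary 4 °C 1 h; flow cytometry on Azami-Green-positive cells. Reactivity = Alexa647 intensity divided by Azami-Green intensity.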"}, "[2]": {"biological_target": "T2, mutated human CRTH2 with amino acid substitution (Homo sapiens, UniProt Q9Y5Y4, D194A)", "T2 construct": "inserting genes encoding various mutants with amino acid substitution obtained by deleting termination codons; expressed in transfected cells; host or cells: CHO-S cells (Lifetechnologies), transient (phmAG1-MNLinker vector)", "T2 sequence (Q9Y5Y4 1-395 D194A)": "T1 sequence (Q9Y5Y4 1-395 R195A) with D194A, A195R", "experiment": "Epitope analysis using CHO-S cells which express mutated human CRTH2 with amino acid substitution", "assay_type": "binding", "conditions": "mutant D194A; antibody 10 μg/mL; relative to wild-type = 100%", "procedure,_shortened": "as §1"}}, "note": "Positions count from the first letter of the chain named."}
{"molecule": "B1", "values": [{"measurement": "reactivity against cells expressing mutated human CRTH2", "setting": "[1]", "result": "lost"}, {"measurement": "reactivity against cells expressing mutated human CRTH2", "setting": "[2]", "result": "lost"}]}
